Assay results published in article PMC12578645 (Nature Microbiology, 2025).

Tests used:
[1] = target: the molecule itself; assay: cryo-EM structure
[2] = target: T1, gB-Ecto.H516P.L531E.DS (Human alphaherpesvirus 1, strain KOS, H516P | L531E | A240C | E607C); assay: SPR; settings: both partners purified
T1 construct: also called gB-Ecto.H516P.L531E.A240C+E607C (DS); gB-Ecto.516P.531E.DS; not shown: 8xHis-Tag, C-terminal, kept

[3] = target: T2, gB-Ecto.H516P.L531E (Human alphaherpesvirus 1, strain KOS, H516P | L531E); assay: SPR; settings: both partners purified
T2 construct: also called gB-Ecto.516P.531E; prefusion gB; not shown: 8xHis-Tag, C-terminal, kept

[4] = target: T3, HSV-1 gB on infectious HSV-1 virions (Human alphaherpesvirus 1 (HSV-1), …, UniProt P06437); assay: ELISA; virion-binding ELISA: plates coated with purified authentic live HSV-1 at 50,000 infectious particles per well; monoclonal antibodies in fivefold dilutions from 20 µg/ml; settings: one partner purified
T3 construct: also called authentic live virus; source: HSV-1 MacIntrye (VR-539; ATCC) propagated in Vero cells, virions purified by ultracentrifugation with a 25% sucrose cushion

B1: gB-Ecto.H516P.L531E (HSV-1 glycoprotein B ectodomain stabilized in the prefusion conformation) (domain or fragment)
chain: not shown
modifications: N-linked glycans (densities seen at 141, 398, 430 and 674)
notes: also called H516P + L531E ectodomain; prefusion gB
stoichiometry N [1]: 3

B2: WS.HSV-1.24 Fab (Fab, V domains shown)
VH: QVQLKESGPGLVAPSQSLSITCTVSGFSLTTYGVTWVRQPPGKGLEWLGVIWGDGSTNYHSDLISRLSITKDNSKSQVFLKLSSLQADDTATYYCVSYYGYFDHWGQGTTLTVSS
VL: DIQMTQSPSSLSASLGERVSLTCRASQDIGSSLNWLQQKPDGTIKRLIYATSSLDSGVPKRFSGSRSGSDYSLTISSLESEDFVDYYCLQYASSPPTFGGGTKLEIK
notes: also called WS.HSV-24; source: IgG expressed in Expi293F and purified; reduced and alkylated, digested with immobilized papain; Fab purified (protein G negative selection, Superdex 75 gel filtration)
Kd [2]: 1.86 nM
Kd [3]: 3.2 nM

B3: WS.HSV-1.24 IgG (antibody, V domains shown)
VH: B2 VH
VL: B2 VL
notes: also called WS.HSV-24; source: Expi293F, purified (variable genes cloned into pVRC8400 with species-specific constant regions)
binding result [4]: binds
